Assay results as given in US20250019439A1 (Adimab, published 2025).
Each block holds one binder with its values, some of them ahead of it.

How the values were obtained:
ADI-22523 IgG = biological target: T1, ADI-22523 IgG; experiment: BLI; tip anti-ID IgG, solution ADI-22523 IgG
T1 construct: anti-CD3 IgG
Method: (§1) ForteBio affinity measurements were performed generally as previously described (Estep et al., MAbs. 2013 5(2):270-8). Briefly, ForteBio affinity measurements were performed by loading antibody IgG or Fabs on-line onto AHC sensors. Sensors were equilibrated off-line in assay buffer for 30 minutes and then monitored on-line for 60 seconds for baseline establishment. For avid binding measurement, sensors with loaded antibodies were exposed to IgG or Fab solutions for 3 minutes, afterwards they were transferred to assay buffer for 3 minutes for off-rate measurement. Kinetics data were fit using a 1:1 binding model in the data analysis software provided by ForteBio to obtain equilibrium dissociation constant (KD=koff/kₒₙ) values. In each column, tip-immobilized antibodies are listed first and solution antibodies second.

ADI-22523 Fab = biological target: T2, ADI-22523 Fab; experiment: BLI; tip anti-ID IgG, solution ADI-22523 Fab
T2 construct: anti-CD3 Fab by papain digestion of the IgG
T2 sequence (VH, as listed by the source limits assumed, chain 1 of 2): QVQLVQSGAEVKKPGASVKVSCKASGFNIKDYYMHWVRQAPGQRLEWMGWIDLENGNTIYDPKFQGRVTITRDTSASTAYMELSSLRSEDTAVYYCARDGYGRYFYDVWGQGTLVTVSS
T2 sequence (VL, as listed by the source limits assumed, chain 2 of 2): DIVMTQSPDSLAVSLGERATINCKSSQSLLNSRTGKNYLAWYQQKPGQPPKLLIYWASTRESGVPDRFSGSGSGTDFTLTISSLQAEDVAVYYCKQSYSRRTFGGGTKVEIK
Method: as §1

ADI-76359 = biological target: T3, ADI-76359; experiment: SPR Carterra avidity, yeast anti-ID, *koff limit
T3 construct: anti-CD3 antibody made in CHO cells, captured by anti-human Fc
Method: (§2) Kinetic analysis was conducted at 25° C. in an HBSTE running buffer system (Carterra Cat #3630) using a Carterra LSA (Carterra USA, Salt Lake City, UT). The sample compartment was maintained at 20° C. for the duration of each experiment.
(§3) For antibody capture experiments, a goat anti-human Fc antibody (Jackson ImmunoResearch) was covalently coupled to an HC30M sensor chip surface via standard amine coupling (1:1 EDC:NHS) and then blocked with ethanolamine (1.0 M, pH 8.5). Covalent coupling steps were performed in 25 mM MES buffer (Carterra, Cat #3625) plus 0.05% Tween20. The anti-CD3 antibodies (100 nM in running buffer) were flowed over discrete regions of interest on the chip surface for 5 minutes. […] Dissociation of the anti-idiotype antibodies was monitored for 300s. Several blank buffer samples were injected over the entire chip surface at the start of each non-regenerative kinetic cycle. The preceding blank buffer injection was used for blank surface subtraction. At the end of each non-regenerative kinetic cycle, all surfaces were regenerated via two 30s injections of 10 mM glycine, pH 1.7.
(§4) For data processing and fitting, sensorgrams were double reference subtracted with a baseline drift correction of 4 RU. Sensorgrams were y-aligned and baseline corrected, filtered and cropped to include only the association and dissociation steps. Data was fitted to a 1:1 binding model using Carterra Kinetics Data Analysis software version 1.7.1.3055.

ADI-74967 = biological target: T4, ADI-74967; experiment: SPR Carterra avidity, yeast anti-ID, *koff limit
T4 construct: pH-dependent anti-CD3 antibody made in CHO cells
T4 sequence (VH, as listed by the source, chain 1 of 2): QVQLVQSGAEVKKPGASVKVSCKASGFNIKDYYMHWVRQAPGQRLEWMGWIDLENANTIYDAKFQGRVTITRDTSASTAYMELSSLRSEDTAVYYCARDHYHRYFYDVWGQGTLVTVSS
T4 sequence (VL, as listed by the source, chain 2 of 2): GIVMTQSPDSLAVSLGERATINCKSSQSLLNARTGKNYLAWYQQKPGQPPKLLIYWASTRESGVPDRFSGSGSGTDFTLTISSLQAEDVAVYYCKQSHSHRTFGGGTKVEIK
Method: as §2, §3, §4

ADI-26921 IgG = biological target: T5, ADI-26921 IgG; experiment: SPR Carterra avidity, yeast anti-ID, *koff limit
T5 construct: anti-CD3 IgG
Method: as §2, §3, §4

ADI-26920 IgG = biological target: T6, ADI-26920 IgG; experiment: SPR Carterra avidity, yeast anti-ID, *koff limit
T6 construct: anti-CD3 IgG
T6 sequence (VH, as listed by the source limits assumed, chain 1 of 2): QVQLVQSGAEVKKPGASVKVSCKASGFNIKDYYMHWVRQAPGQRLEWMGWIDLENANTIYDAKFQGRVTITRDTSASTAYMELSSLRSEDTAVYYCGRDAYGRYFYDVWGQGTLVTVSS
T6 sequence (VL, as listed by the source limits assumed, chain 2 of 2): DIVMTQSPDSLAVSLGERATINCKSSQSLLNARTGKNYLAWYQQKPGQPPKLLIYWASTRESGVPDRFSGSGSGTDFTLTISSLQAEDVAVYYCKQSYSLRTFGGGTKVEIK
Method: as §2, §3, §4

ADI-74966 = biological target: T7, ADI-74966; experiment: SPR Carterra avidity, yeast anti-ID
T7 construct: pH-dependent anti-CD3 antibody made in CHO cells
T7 sequence (VL, as listed by the source, chain 2 of 2): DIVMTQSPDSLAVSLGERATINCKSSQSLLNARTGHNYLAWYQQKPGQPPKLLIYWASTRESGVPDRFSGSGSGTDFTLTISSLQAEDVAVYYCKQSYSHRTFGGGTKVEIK
Method: as §2, §3, §4

ADI-67450 = biological target: T8, ADI-67450; experiment: SPR Carterra avidity, yeast anti-ID
T8 construct: anti-CD3 antibody made in CHO cells, captured by anti-human Fc
Method: as §2, §3, §4

ADI-70326 = biological target: T9, ADI-70326; experiment: SPR Carterra avidity, yeast anti-ID
T9 construct: anti-CD3 antibody made in CHO cells, captured by anti-human Fc
T9 sequence (VH, as listed by the source limits assumed, chain 1 of 2): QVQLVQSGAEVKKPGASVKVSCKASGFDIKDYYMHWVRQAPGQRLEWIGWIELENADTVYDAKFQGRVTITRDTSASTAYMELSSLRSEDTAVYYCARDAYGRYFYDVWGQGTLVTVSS
T9 sequence (VL, as listed by the source limits assumed, chain 2 of 2): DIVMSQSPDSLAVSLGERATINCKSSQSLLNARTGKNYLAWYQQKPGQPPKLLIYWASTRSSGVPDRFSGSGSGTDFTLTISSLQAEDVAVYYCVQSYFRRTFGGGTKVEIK
Method: as §2, §3, §4

ADI-48587 = biological target: T10, ADI-48587; experiment: SPR Carterra avidity, yeast anti-ID
T10 construct: pH-dependent anti-CD3 antibody made in CHO cells
T10 sequence (VL, as listed by the source, chain 2 of 2): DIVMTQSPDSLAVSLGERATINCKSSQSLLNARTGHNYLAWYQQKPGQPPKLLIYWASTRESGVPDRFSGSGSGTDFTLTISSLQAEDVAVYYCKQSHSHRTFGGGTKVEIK
Method: as §2, §3, §4

ADI-26906 IgG = biological target: T11, ADI-26906 IgG; experiment: SPR Carterra avidity, yeast anti-ID
T11 construct: anti-CD3 IgG
T11 sequence (VH, as listed by the source limits assumed, chain 1 of 2): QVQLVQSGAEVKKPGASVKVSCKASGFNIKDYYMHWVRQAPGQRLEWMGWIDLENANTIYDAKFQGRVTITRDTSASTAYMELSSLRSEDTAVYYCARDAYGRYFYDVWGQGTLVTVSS
T11 sequence (VL, as listed by the source limits assumed, chain 2 of 2): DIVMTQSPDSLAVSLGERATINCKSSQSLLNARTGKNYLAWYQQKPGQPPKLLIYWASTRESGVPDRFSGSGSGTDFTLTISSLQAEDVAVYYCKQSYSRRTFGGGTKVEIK
Method: as §2, §3, §4

CTL-62223 = biological target: T12, CTL-62223; experiment: SPR Carterra avidity, yeast anti-ID
T12 construct: also called mosunetuzumab
T12 sequence (VH, as listed by the source, chain 1 of 2): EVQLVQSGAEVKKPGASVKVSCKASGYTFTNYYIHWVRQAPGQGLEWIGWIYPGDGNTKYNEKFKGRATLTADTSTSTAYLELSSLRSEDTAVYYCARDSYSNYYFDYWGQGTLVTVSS
T12 sequence (VL, as listed by the source, chain 2 of 2): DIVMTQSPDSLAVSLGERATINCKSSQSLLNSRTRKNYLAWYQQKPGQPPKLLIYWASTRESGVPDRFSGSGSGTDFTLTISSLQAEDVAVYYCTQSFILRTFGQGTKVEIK
Method: as §2, §3, §4

ADI-76361 = biological target: T13, ADI-76361; experiment: SPR Carterra avidity, yeast anti-ID
T13 construct: anti-CD3 antibody made in CHO cells, captured by anti-human Fc
Method: as §2, §3, §4

ADI-26916 IgG = biological target: T14, ADI-26916 IgG; experiment: SPR Carterra avidity, yeast anti-ID
T14 construct: anti-CD3 IgG
Method: as §2, §3, §4

ADI-26943 = biological target: T15, ADI-26943; experiment: SPR Carterra avidity, yeast anti-ID
T15 construct: anti-CD3 antibody made in CHO cells, captured by anti-human Fc
Method: as §2, §3, §4

ADI-74965 = biological target: T16, ADI-74965; experiment: SPR Carterra avidity, yeast anti-ID
T16 construct: pH-dependent anti-CD3 antibody made in CHO cells
T16 sequence (VH, as listed by the source, chain 1 of 2): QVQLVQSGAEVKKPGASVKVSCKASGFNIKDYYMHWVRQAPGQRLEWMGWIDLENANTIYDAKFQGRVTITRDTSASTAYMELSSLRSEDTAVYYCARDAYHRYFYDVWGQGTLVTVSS
Method: as §2, §3, §4

ADI-70327 = biological target: T17, ADI-70327; experiment: SPR Carterra avidity, yeast anti-ID
T17 construct: anti-CD3 antibody made in CHO cells, captured by anti-human Fc
Method: as §2, §3, §4

ADI-74968 = biological target: T18, ADI-74968; experiment: SPR Carterra avidity, yeast anti-ID
T18 construct: pH-dependent anti-CD3 antibody made in CHO cells
Method: as §2, §3, §4

ADI-67445 = biological target: T19, ADI-67445; experiment: SPR Carterra avidity, yeast anti-ID
T19 construct: anti-CD3 antibody made in CHO cells, captured by anti-human Fc
Method: as §2, §3, §4

ADI-76358 = biological target: T20, ADI-76358; experiment: SPR Carterra avidity, yeast anti-ID
T20 construct: anti-CD3 antibody made in CHO cells, captured by anti-human Fc
Method: as §2, §3, §4

ADI-26909 = biological target: T21, ADI-26909; experiment: SPR Carterra avidity, yeast anti-ID
T21 construct: anti-CD3 antibody made in CHO cells, captured by anti-human Fc
T21 sequence (VH, as listed by the source limits assumed, chain 1 of 2): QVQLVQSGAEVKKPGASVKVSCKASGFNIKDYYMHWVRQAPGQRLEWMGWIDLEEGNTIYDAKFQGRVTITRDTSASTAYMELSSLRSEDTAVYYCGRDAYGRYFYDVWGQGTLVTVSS
Method: as §2, §3, §4

ADI-48592 = biological target: T22, ADI-48592; experiment: SPR Carterra avidity, yeast anti-ID
T22 construct: pH-dependent anti-CD3 antibody made in CHO cells
Method: as §2, §3, §4

ADI-26924 = biological target: T23, ADI-26924; experiment: SPR Carterra avidity, yeast anti-ID
T23 construct: anti-CD3 antibody made in CHO cells, captured by anti-human Fc
T23 sequence (VH, as listed by the source, chain 1 of 2): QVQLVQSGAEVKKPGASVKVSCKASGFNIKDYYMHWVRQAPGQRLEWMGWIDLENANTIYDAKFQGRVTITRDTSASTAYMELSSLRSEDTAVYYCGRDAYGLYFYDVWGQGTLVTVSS
Method: as §2, §3, §4

ADI-76357 = biological target: T24, ADI-76357; experiment: SPR Carterra avidity, yeast anti-ID
T24 construct: anti-CD3 antibody made in CHO cells, captured by anti-human Fc
T24 sequence (VH, as listed by the source, chain 1 of 2): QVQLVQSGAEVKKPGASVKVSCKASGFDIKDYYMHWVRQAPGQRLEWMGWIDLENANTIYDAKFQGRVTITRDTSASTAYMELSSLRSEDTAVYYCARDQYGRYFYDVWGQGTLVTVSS
Method: as §2, §3, §4

ADI-50024 = biological target: T25, ADI-50024; experiment: SPR Carterra avidity, yeast anti-ID
T25 construct: anti-CD3 antibody made in CHO cells, captured by anti-human Fc
Method: as §2, §3, §4

ADI-26915 = biological target: T26, ADI-26915; experiment: SPR Carterra avidity, yeast anti-ID
T26 construct: anti-CD3 antibody made in CHO cells, captured by anti-human Fc
T26 sequence (VH, as listed by the source, chain 1 of 2): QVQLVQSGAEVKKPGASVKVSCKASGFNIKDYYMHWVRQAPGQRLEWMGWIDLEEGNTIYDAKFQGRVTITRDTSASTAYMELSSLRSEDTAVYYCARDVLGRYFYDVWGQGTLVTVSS
Method: as §2, §3, §4

ADI-26913 IgG = biological target: T27, ADI-26913 IgG; experiment: SPR Carterra avidity, yeast anti-ID
T27 construct: anti-CD3 IgG
T27 sequence (VH, as listed by the source limits assumed, chain 1 of 2): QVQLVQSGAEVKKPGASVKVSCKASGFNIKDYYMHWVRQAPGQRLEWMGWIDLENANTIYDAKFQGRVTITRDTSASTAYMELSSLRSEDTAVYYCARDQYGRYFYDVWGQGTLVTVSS
Method: as §2, §3, §4

ADI-76362 = biological target: T28, ADI-76362; experiment: SPR Carterra avidity, yeast anti-ID
T28 construct: anti-CD3 antibody made in CHO cells, captured by anti-human Fc
T28 sequence (VH, as listed by the source, chain 1 of 2): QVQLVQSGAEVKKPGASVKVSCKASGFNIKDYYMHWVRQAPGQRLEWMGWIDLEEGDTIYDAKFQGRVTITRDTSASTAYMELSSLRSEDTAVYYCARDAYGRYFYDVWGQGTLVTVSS
Method: as §2, §3, §4

ADI-67447 = biological target: T29, ADI-67447; experiment: SPR Carterra avidity, yeast anti-ID
T29 construct: anti-CD3 antibody made in CHO cells, captured by anti-human Fc
Method: as §2, §3, §4

ADI-48576 = biological target: T30, ADI-48576; experiment: SPR Carterra avidity, yeast anti-ID
T30 construct: pH-dependent anti-CD3 antibody made in CHO cells
Method: as §2, §3, §4

ADI-26912 = biological target: T31, ADI-26912; experiment: SPR Carterra avidity, yeast anti-ID
T31 construct: anti-CD3 antibody made in CHO cells, captured by anti-human Fc
Method: as §2, §3, §4

ADI-48650 = biological target: T32, ADI-48650; experiment: SPR Carterra avidity, yeast anti-ID
T32 construct: pH-dependent anti-CD3 antibody made in CHO cells
Method: as §2, §3, §4

ADI-76360 = biological target: T33, ADI-76360; experiment: SPR Carterra avidity, yeast anti-ID
T33 construct: anti-CD3 antibody made in CHO cells, captured by anti-human Fc
Method: as §2, §3, §4

ADI-26919 = biological target: T34, ADI-26919; experiment: SPR Carterra avidity, yeast anti-ID
T34 construct: anti-CD3 antibody made in CHO cells, captured by anti-human Fc
Method: as §2, §3, §4

ADI-70330 = biological target: T35, ADI-70330; experiment: SPR Carterra avidity, yeast anti-ID
T35 construct: anti-CD3 antibody made in CHO cells, captured by anti-human Fc
Method: as §2, §3, §4

- Kd (ADI-22523 IgG): 0.63 nM
- Kd (ADI-22523 Fab): 14.8 nM
- Kd (ADI-76359): 0.059 nM
- Kd (ADI-74967): 0.12 nM
- Kd (ADI-26921 IgG): 0.048 nM
- Kd (ADI-26920 IgG): 0.088 nM
- Kd (ADI-74966): 0.21 nM
- Kd (ADI-67450): 0.92 nM
- binding result (ADI-70326): binds
- Kd (ADI-48587): 0.88 nM
- Kd (ADI-26906 IgG): 0.33 nM
- Kd (CTL-62223): 1.8 nM
- Kd (ADI-76361): 0.054 nM
- Kd (ADI-26916 IgG): 0.31 nM
- Kd (ADI-26943): 0.17 nM
- binding result (ADI-74965): binds
- Kd (ADI-70327): 0.95 nM
- Kd (ADI-74968): 0.76 nM
- Kd (ADI-67445): 0.37 nM
- Kd (ADI-76358): 0.96 nM
- Kd (ADI-26909): 0.32 nM
- binding result (ADI-48592): binds
- Kd (ADI-26924): 0.19 nM
- Kd (ADI-76357): 0.086 nM
- Kd (ADI-50024): 0.39 nM
- Kd (ADI-26915): 14 nM
- Kd (ADI-26913 IgG): 0.3 nM
- Kd (ADI-76362): 0.22 nM
- Kd (ADI-67447): 0.22 nM
- binding result (ADI-48576): binds
- binding result (ADI-26912): binds
- binding result (ADI-48650): binds
- Kd (ADI-76360): 0.082 nM
- Kd (ADI-26919): 0.14 nM
- Kd (ADI-70330): 0.3 nM
B1: ADI-34137 (antibody, V domains shown)
VH: QVQLVQSGAEVKKPGSSVKVSCKASGGTFSSYAISWVRQAPGQGLEWMGGIIPIFGTANYAQKFQGRVTITADESTSTAYMELSSLRSEDTAVYYCARGAPNYYGSGGYDDGWFDPWGQGTLVTVSS
VL: EIVLTQSPGTLSLSPGERATLSCRASQSVSSSYLAWYQQKPGQAPRLLIYGASSRATGIPDRFSGSGSGTDFTLTISRLEPEDFAVYYCQQFGRFPTFGGGTKVEIK
notes: anti-ID IgG

- Kd (ADI-22523 IgG): 2.99 nM
- Kd (ADI-22523 Fab): 12.5 nM
B2: ADI-34139 (antibody, V domains shown)
VH: EVQLLESGGGLVQPGGSLRLSCAASGFTFSSYAMSWVRQAPGKGLEWVSTISGSGGSTYYADSVKGRFTISRDNSKNTLYLQMNSLRAEDTAVYYCARLGGRRGSGSSYYYYYGMDVWGQGTTVTVSS
VL: not shown
notes: anti-ID IgG

- Kd (ADI-22523 IgG): 2.9 nM
- Kd (ADI-22523 Fab): 18.9 nM
B3: ADI-34140 (antibody, V domains shown)
VH: EVQLLESGGGLVQPGGSLRLSCAASGFTFSSYAMSWVRQAPGKGLEWVSTISGSGGSTYYADSVKGRFTISRDNSKNTLYLQMNSLRAEDTAVYYCARLGGRRGSGSSYYYYYGMDVWGQGTTVTVSS
VL: not shown
notes: anti-ID IgG
